Measurements published in US9526766B2, “Potentiation of antibiotic treatment with a protein-lipid complex” (priority 2012, dated 2016).

Experiments:
Acinetobacter baumanni = assay: MIC by broth microdilution, antibiotics with and without ALAFAC; assay type: cell-based; conditions: agent alone
Procedure: (§1) Methodology: Minimal inhibitory concentrations (MICs) were determined in 96-well microtiter plates using the microdilution method according to approved standards of the CLSI except that Todd-Hewitt medium supplemented with 0.5% yeast extract, which yields reproducible MIC results was used as the test medium for S. pneumoniae. For the remaining species Mueller-Hinton medium was used as indicated by the CLSI standard. Each well contained two-fold dilutions of antibiotic, was seeded with a final bacterial concentration of 10^5 CFU/mL, and was incubated for 18 h at 37° C. in a Synergy II microplate reader (Biotek, Winooski, Vt.) where the OD600 was recorded every 5 minutes to monitor bacterial growth. The MIC was defined as the lowest concentration of antimicrobial agent solution at which no increase in OD600 was detected.
(§2) In vitro susceptibility tests. Minimal inhibitory concentrations (MICs) were determined in 96-well microtiter plates using the microdilution method according to approved standards of the CLSI except that Todd-Hewitt medium supplemented with 0.5% yeast extract, which yields reproducible MIC results was used as the test medium for S. pneumoniae. MICs for A. baumanni, and M. catarrhalis were determined in MH media. Two-fold dilutions of a starting antibiotic concentration was added in triplicate into microtiter plate wells (in 96-well plates), were seeded with a final bacterial concentration of ˜10^5 colony forming units (CFU)/mL, and was incubated for 18 h in ambient air at 37° C. in a Synergy II microplate reader (Biotek, Winooski, Vt.) where the OD600 was recorded every 5 minutes to monitor bacterial growth. The MIC was defined as the lowest concentration of antimicrobial agent solution at which no increase in OD600 was detected.

Moraxella catarrhalis = assay: as above; assay type: cell-based; conditions: agent alone
Procedure: as §1, §2

Staphylococcus aureus [1] = assay: as above; assay type: cell-based; conditions: for MIC: antibiotic alone
Procedure: as §1
In vitro susceptibility tests. Minimal inhibitory concentrations (MICs) were determined in 96-well microtiter plates using the microdilution method according to approved standards of the CLSI as described previously. However, rather than Mueller-Hinton broth, Tryptic soy broth (TSB) was used for susceptibility testing as it is the common media used for Staphylococcal growth, and as it has shown more consistent results for a variety of antimicrobials when tested against Staphylococci. […] A two-fold dilution series of antibiotics in triplicate and in the presence or absence of ALAFAC was prepared in 96 well microtiter plates, and each well was seeded with a final bacterial concentration of 10^5 CFU/mL, and was incubated for 24 h at 37° C. in a Synergy 2 microplate reader (Biotek, Winooski, Vt.) where the Optical Density at 600 nm (OD600) was recorded every 5 minutes to monitor bacterial growth. The MIC was defined as the lowest concentration of antimicrobial agent solution where no increase in OD600 was detected.

Staphylococcus aureus [2] = assay: Minimal bactericidal concentration (MBC) from MIC plates; assay type: cell-based; conditions: antibiotic alone
Description: The MBC was defined as the lowest concentration of antimicrobials yielding colony counts <0.1% (3 log10 reduction) of the initial inoculum (as determined by colony counts from the growth control well immediately after inoculation) as described.

Streptococcus pneumoniae = assay: Short-time kill assay on planktonic cultures; assay type: cell-based; conditions: for Minimum antibiotic concentration for bactericidal (>3 log10) activity, planktonic: within 4-6 hours, antibiotic alone
Procedure: (§3) Methodology: In late logarithmic growth phase, the bacteria were harvested by centrifugation at 12,000×g for 10 minutes and resuspended in phosphate-buffered saline (PBS; […], […], […], pH 7.4). Appropriate dilutions of the bacteria were suspended in PBS and treated with indicated concentrations of ALAFAC and/or antibiotics for various times. The effect on bacterial viability was assessed by plating serial dilutions of bacterial sample on tryptic soy agar plates containing 5% sheep blood (viable counts) and determining viable colony forming units after overnight growth at 37° C.
Short-time kill assays. In late logarithmic growth phase, the bacteria were harvested by centrifugation at 12,000×g for 10 minutes and resuspended in phosphate-buffered saline (PBS; 30 mM Na2HPO4, 10 mM KH2PO4, […], pH 7.4). Appropriate concentrations of the bacteria (around 10^8 colony forming units per ml) were suspended in PBS and treated with indicated concentrations of ALAFAC and/or antibiotics for various times. The effect on bacterial viability was assessed by plating serial dilutions of bacterial sample on tryptic soy agar plates containing 5% sheep blood (viable counts) and determining viable CFUs after overnight growth at 37° C.

Staphylococcus aureus [3] = assay: Bactericidal activity on planktonic cultures; assay type: cell-based; conditions: S. aureus NRS384; within 4-6 hours; antibiotic alone
Procedure: as §3

S. pneumoniae D39 = assay: Autolysis by optical density at 600 nm; assay type: cell-based, Streptococcus pneumoniae
Description: Most agents that kill pneumococci, including […] and cell wall-active anti-bacterials activate the major autolysin LytA to induce lysis of the bacteria, which can easily be detected by eye as a clearing of the bacterial suspension upon treatment and measured by a decrease in OD600 nm over time. In comparison, antibiotics acting on bacterial DNA, RNA, or protein synthesis show reduced, though still significant, levels of cell lysis. However, during our combination treatments with […] and gentamicin above we observed no detectable lysis. […] The lack of lysis from combination treatment may be beneficial for the host in reducing the host inflammation associated with bacterial components after lysis.

[4] = D39, 1 hour, ALAFAC 50 μg/ml, gentamicin 50 μg/ml, alone or combined, 7.7 log10 inoculum
[5] = sublethal ALAFAC (50 μg/ml), low gentamicin, alone or combined

gentamicin
MIC (Acinetobacter baumanni; A. baumanni AB307): 36 µg/mL
MIC (Acinetobacter baumanni; A. baumanni AB979): 2.5 µg/mL
MIC (Moraxella catarrhalis; M. catarrhalis 7169 (MC7169)): 25 µg/mL
MIC (Moraxella catarrhalis; M. catarrhalis BC8 (MCBC8)): 25 µg/mL
MIC (Staphylococcus aureus [1]; S. aureus NRS1): >128 µg/mL
MIC (Staphylococcus aureus [1]; S. aureus NRS384): 1 µg/mL
MBC (Staphylococcus aureus [2]; S. aureus NRS1): >256 µg/mL
MBC (Staphylococcus aureus [2]; S. aureus NRS384): 16 µg/mL
Short-time killing (Streptococcus pneumoniae; [4]): insignificant killing
Minimum antibiotic concentration for bactericidal (>3 log10) activity, planktonic (Streptococcus pneumoniae; S. pneumoniae D39): >500 μg/ml
Minimum antibiotic concentration for bactericidal (>3 log10) activity, planktonic (Streptococcus pneumoniae; S. pneumoniae EF3030): >500 μg/ml
Short-time killing (Streptococcus pneumoniae; gentamicin alone at high concentrations, up to 1,000 μg/ml, 1 hour): 1.4 log10
Short-time killing (Streptococcus pneumoniae; gentamicin alone at high concentrations, up to 1,000 μg/ml, 1 hour, listed as gentamicin): ≤ 1.4 log10
Minimum antibiotic concentration for bactericidal (>3 log10) activity, planktonic (Staphylococcus aureus [3]): 50 μg/ml
Autolysis (OD600) (S. pneumoniae D39; [5]): failed to lyse

B1: ALAFAC: non-covalent complex of alpha-lactalbumin and fatty acid (oleic acid); labeled HAMLET or HL in drawings and tables (protein, UniProt P00709 20-142, looked up)
Alpha-lactalbumin: KQFTKCELSQLLKDIDGYGGIALPELICTMFHTSGYDTQAIVENNESTEYGLFQISNKLWCKSSQVPQSRNICDISCDKFLDDDITDDIMCAKKILDIKGIDYWLAHKALCTEKLEQWLCEKL
modifications: complexed with oleic acid
[HL] to sensitize (Staphylococcus aureus [1]; 10307570, sensitive to methicillin): 6 µM
[HL] to sensitize (Staphylococcus aureus [1]; 11090306, sensitive to methicillin): 0 µM
Additional ALAFAC required for equivalent adjuvant activity (Staphylococcus aureus [1]; Mueller Hinton broth versus TSB): approximately 20%
[HL] to sensitize (Staphylococcus aureus [1]; NRS1, sensitive to gentamicin): 48 µM
[HL] to sensitize (Staphylococcus aureus [1]; NRS1, sensitive to methicillin): 48 µM
[HL] to sensitize (Staphylococcus aureus [1]; NRS1, sensitive to vancomycin): 18 µM
[HL] to sensitize (Staphylococcus aureus [1]; NRS70, sensitive to methicillin): 3 µM
[HL] to sensitize (Staphylococcus aureus [1]; NRS71, sensitive to methicillin): 54 µM
[HL] to sensitize (Staphylococcus aureus [1]; NRS100, sensitive to methicillin): 18 µM
[HL] to sensitize (Staphylococcus aureus [1]; NRS123, sensitive to erythromycin): 0 µM
[HL] to sensitize (Staphylococcus aureus [1]; NRS123, sensitive to methicillin): 12 µM
[HL] to sensitize (Staphylococcus aureus [1]; NRS384, sensitive to erythromycin): 6 µM
[HL] to sensitize (Staphylococcus aureus [1]; NRS384, sensitive to gentamicin): 0 µM
[HL] to sensitize (Staphylococcus aureus [1]; NRS384, sensitive to methicillin): 6 µM
[HL] to sensitize (Staphylococcus aureus [1]; NRS384, sensitive to vancomycin): 0 µM
Concentration of ALAFAC alone without activity (Staphylococcus aureus [1]; any of the S. aureus strains tested): exceeding 5,000 μg/ml
ALAFAC concentration required to convert all antibiotic-resistant strains to sensitivity (Staphylococcus aureus [1]; methicillin, gentamicin, erythromycin and vancomycin): at most 54 μM
Short-time killing (Streptococcus pneumoniae; [4]): insignificant killing
Short-time killing (Streptococcus pneumoniae; D39, 4 hours, ALAFAC 50 μg/ml, erythromycin 200 μg/ml, alone or combined, 7.2 log10 inoculum): insignificant bactericidal activity
Fold higher concentration of ALAFAC alone required for activity similar to the combination (Streptococcus pneumoniae; D39, versus 50 μg/ml ALAFAC + 20 μg/ml penicillin G, 4 hours): > 5 fold
Concentration required to eradicate each inoculum (Streptococcus pneumoniae; all pneumococcal strains, 1 hour): approximately 15 times the MIC
Concentration to eradicate an inoculum of 10^8 pneumococci (Streptococcus pneumoniae; time-kill assay, 1 hour): 300 μg/ml
Autolysis (OD600) (S. pneumoniae D39; ALAFAC alone at a lethal concentration (250 μg/ml)): rapid lysis
Autolysis (OD600) (S. pneumoniae D39; [5]): small decrease in optical density
